The record followed here is article PMC1635298.

Test in all cases: EMSA
(In general: A gel shift assay detects complexes by their altered migration in electrophoresis.)

Data set [1] has as its target T1, Slx5-Slx8 complex, Slx8 subunit;Slx5 (Saccharomyces cerevisiae;Saccharomyces …, UniProt P40072;P32828 1-274;1-619, |).
T1 sequence 1: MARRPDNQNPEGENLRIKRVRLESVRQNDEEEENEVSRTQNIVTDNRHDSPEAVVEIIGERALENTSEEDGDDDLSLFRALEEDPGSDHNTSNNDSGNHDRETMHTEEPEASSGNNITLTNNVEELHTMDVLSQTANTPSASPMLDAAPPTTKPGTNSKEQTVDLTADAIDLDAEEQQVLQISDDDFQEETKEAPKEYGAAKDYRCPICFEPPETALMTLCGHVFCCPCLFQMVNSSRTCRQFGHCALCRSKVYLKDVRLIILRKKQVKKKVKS
T1 sequence 2: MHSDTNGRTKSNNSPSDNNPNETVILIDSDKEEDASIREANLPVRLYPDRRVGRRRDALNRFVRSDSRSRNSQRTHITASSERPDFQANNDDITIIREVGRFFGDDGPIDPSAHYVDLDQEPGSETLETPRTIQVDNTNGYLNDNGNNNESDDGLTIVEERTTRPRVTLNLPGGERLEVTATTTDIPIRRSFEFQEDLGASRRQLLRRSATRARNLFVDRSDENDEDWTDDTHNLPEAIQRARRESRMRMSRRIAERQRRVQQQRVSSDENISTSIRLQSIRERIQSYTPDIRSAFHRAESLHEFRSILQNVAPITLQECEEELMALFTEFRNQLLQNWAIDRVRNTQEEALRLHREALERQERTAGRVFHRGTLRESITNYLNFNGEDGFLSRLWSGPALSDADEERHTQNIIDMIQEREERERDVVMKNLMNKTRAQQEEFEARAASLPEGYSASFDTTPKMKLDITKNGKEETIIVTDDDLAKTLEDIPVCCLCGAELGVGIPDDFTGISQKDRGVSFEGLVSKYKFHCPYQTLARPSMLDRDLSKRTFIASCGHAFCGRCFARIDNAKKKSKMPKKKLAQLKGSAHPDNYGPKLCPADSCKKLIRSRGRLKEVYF

Data set [2] has as its target T1, Slx5-Slx8 complex, Slx8 subunit;Slx5. This is another data set of the same source.
For data set [3] the target is unchanged. This is another data set of the same source.
The target is the same in data set [4]. This is another data set of the same source.
In another data set the target is T2, Slx5 (Saccharomyces cerevisiae, UniProt P32828 1-619).
T2 sequence: T1 sequence 2

The next data set addresses T3, Slx8 (Saccharomyces cerevisiae, UniProt P40072 1-274).
T3 sequence: T1 sequence 1

The target in data set [5] is T1, Slx5-Slx8 complex, Slx8 subunit;Slx5. The source holds these as a separate data set.

Read-outs that look alike come from different tables or passages of the source.

Take GACGCTGCCGAATTCTGGCGTTAGGAGATACCGATAAGCTTCGGCTTAA (ssDNA) [49 nt ssDNA (888)]: in data set [1], the binding result is reported as “no binding”.

B1: 90 bp dsDNA (1317/1319) (dsDNA)
DNA 1: GATCCGAATTCTGGCTTGCTAGGACATCTTTGCCCACGTTGACCCGGGTTGGCGTTAGGAGATAGTCAGTTATAGCTGCGGCTGCTAAGG
DNA 2: GATCCCTTAGCAGCCGCAGCTATAACTGACTATCTCCTAACGCCAACCCGGGTCAACGTGGGCAAAGATGTCCTAGCAAGCCAGAATTCG
As to B1, the binding result in data set [2] is given as “binds”.

B2: 30 bp dsDNA (1313/1314) (dsDNA)
DNA 1: TGGCGTTAGGAGATACCGATAAGCTTCGGC
DNA 2: GCCGAAGCTTATCGGTATCTCCTAACGCCA
Consider B2, for which the binding result in data set [3] was “binds”.

B3: 45 bp dsDNA (1315/1316) (dsDNA)
DNA 1: GGGTCAACGTGGGCAAAGATGTCCTAGCAAGCCAGAATTCGGCAG
DNA 2: CTGCCGAATTCTGGCTTGCTAGGACATCTTTGCCCACGTTGACCC
B3: the entries for the “apparent K (half saturation)” value (in data set [4]; with Slx8) were < 0.5 pmol (in reaction; standard volume 20 uL) and ~8 pmol (in reaction; standard volume 20 uL), respectively. For the same molecule, the binding result with Slx5 is on record as “no binding”.

B4: 15 bp dsDNA (1312/1320) (dsDNA)
DNA 1: TATCTCCTAACGCCA
DNA 2: TGGCGTTAGGAGATA
As for B4, the binding result in data set [5] is on record as “no binding”.
